B1: Thioredoxin-dependent peroxide reductase, mitochondrial (Homo sapiens), P30048 (parent)
chain: MAAAVGRLLRASVARHVSAIPWGISATAALRPAACGRTSLTNLLCSGSSQAKLFSTSSSCHAPAVTQHAPYFKGTAVVNGEFKDLSLDDFKGKYLVLFFYPLDFTFVCPTEIVAFSDKANEFHDVNCEVVAVSVDSHFSHLAWINTPRKNGGLGHMNIALLSDLTKQISRDYGVLLEGSGLALRGLFIIDPNGVIKHLSVNDLPVGRSVEETLRLVKAFQYVETHGEVCPANWTPDSPTIKPSPAASKEYFQKVNQ

Variants of: B1
Settings: with lrrk2_human LRRK2, Q5S007
Chain of lrrk2_human LRRK2, Q5S007 (Q5S007 whole entry): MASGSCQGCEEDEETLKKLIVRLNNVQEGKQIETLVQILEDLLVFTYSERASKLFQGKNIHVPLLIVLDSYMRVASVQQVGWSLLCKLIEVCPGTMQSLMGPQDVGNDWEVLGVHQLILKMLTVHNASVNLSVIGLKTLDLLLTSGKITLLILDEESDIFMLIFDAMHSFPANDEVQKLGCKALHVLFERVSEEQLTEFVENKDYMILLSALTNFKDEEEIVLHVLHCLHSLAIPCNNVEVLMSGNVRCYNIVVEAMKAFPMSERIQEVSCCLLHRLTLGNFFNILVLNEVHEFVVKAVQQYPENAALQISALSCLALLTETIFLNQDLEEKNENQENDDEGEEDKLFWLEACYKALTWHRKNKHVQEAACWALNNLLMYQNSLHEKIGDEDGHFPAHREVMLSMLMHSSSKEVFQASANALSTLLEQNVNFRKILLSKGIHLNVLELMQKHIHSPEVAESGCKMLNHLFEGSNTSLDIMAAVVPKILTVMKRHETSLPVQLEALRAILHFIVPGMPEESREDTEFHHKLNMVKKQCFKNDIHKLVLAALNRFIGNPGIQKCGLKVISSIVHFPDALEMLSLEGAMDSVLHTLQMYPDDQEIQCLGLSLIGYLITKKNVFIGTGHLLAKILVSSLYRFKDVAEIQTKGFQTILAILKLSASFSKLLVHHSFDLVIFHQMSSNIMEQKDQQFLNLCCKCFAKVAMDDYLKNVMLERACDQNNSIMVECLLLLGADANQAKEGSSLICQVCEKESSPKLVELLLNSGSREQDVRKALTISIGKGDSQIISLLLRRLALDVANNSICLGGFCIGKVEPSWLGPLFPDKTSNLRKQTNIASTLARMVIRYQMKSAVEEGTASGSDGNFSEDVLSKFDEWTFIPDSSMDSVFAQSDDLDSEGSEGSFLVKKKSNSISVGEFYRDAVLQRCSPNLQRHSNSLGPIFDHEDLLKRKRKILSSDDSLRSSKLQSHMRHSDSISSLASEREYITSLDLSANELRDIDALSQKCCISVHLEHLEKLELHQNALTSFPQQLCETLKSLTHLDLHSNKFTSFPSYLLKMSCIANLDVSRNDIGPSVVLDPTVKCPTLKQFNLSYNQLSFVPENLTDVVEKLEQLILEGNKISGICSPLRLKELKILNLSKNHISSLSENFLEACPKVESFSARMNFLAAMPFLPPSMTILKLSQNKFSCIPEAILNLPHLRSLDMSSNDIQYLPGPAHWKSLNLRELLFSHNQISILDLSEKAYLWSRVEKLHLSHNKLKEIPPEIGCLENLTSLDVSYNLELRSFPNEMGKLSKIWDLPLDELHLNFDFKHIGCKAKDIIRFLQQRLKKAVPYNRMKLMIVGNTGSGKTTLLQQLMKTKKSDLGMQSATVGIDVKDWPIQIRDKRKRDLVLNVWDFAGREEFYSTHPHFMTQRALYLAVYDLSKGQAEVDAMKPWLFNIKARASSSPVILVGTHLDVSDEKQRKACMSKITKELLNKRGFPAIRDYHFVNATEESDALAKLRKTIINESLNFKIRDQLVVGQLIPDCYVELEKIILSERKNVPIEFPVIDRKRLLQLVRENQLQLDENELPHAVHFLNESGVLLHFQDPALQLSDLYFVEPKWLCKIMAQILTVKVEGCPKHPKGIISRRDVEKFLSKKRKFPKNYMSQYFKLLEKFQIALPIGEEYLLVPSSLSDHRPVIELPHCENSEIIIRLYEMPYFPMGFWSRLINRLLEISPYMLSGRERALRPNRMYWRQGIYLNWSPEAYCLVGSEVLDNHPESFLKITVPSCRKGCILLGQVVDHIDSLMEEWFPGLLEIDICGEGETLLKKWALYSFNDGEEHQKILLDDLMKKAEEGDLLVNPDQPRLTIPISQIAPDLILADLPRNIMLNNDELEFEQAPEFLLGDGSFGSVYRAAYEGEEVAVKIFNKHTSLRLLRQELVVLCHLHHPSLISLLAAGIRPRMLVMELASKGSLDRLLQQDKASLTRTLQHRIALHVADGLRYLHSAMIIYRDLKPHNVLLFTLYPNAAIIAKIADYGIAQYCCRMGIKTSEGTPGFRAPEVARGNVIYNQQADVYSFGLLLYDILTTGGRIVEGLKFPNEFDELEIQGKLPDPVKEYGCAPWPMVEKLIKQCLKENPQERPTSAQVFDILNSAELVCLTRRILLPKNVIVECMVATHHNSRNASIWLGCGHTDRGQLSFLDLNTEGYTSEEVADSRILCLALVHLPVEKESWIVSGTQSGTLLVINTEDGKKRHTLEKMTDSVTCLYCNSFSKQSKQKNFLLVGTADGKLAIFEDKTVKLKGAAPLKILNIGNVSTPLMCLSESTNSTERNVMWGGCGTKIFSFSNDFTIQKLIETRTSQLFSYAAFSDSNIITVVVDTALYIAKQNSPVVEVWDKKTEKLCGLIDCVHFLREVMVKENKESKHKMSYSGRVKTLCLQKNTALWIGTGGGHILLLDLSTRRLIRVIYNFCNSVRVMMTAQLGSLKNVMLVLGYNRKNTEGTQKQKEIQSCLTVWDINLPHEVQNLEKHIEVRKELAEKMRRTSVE

effect of a mutation on the interaction | Variant
disrupting interaction | MAAAVGRLLRASVARHVSAIPWGISATAALRPAACGRTSLTNLLCSGSSQAKLFSTSSSCHAPAVTQHAPYFKGTAVVNGEFKDLSLDDFKGKYLVLFFYPLDFTFVCPTEIVAFSDKANEFHDVNCEVVAVSVDSHFSHLAWINAPRKNGGLGHMNIALLSDLTKQISRDYGVLLEGSGLALRGLFIIDPNGVIKHLSVNDLPVGRSVEETLRLVKAFQYVETHGEVCPANWTPDSPTIKPSPAASKEYFQKVNQ [T146A]
